Kd data for 1 molecule are collected here from paper PMC12687424 (2025).

FAM = fluorescein label

In the assay the target is WT PKCβII catalytic domain (UniProt P05771-2 321-673, primed (phosphorylated) at the three PKC priming sites (T-loop, turn motif, hydrophobic motif)). Nature of the assay: FP; representative curve.
Chain of WT PKCβII catalytic domain (P05771 other isoform, or with tags, fused parts or gaps): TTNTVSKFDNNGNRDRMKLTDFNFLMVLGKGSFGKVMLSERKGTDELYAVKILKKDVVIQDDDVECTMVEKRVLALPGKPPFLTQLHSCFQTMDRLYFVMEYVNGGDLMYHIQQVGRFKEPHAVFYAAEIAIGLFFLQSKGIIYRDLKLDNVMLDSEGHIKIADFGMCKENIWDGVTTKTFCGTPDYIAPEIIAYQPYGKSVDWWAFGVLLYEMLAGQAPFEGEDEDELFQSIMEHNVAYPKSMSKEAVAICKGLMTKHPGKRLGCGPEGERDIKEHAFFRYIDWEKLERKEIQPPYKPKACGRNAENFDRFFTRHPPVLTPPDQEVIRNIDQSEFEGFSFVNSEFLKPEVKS

Broadly, the Kd is the concentration at which binding is half-saturated. The low end stands for a tighter complex, the high end for a looser complex. {FAM}-ESTVRFARKGSLRQKNVH-NH2 [Fluorescein-PSS peptide]: binding was characterised by a dissociation constant (Kd) of 39 µM.
